# Assay results from paper PMC11333002, “Molecular dynamics simulations reveal how vinculin refolds partially unfolded talin rod helices to stabilize them against mechanical force” (PLOS Computational Biology, 2024).
# Key:
# [1] = biological target: mouse talin1 R1 VBS (H4) peptide; experiment: Fluorescence polarisation binding of VD1 to VBS peptide; settings: fluorescein-labelled talin1 H4 peptide 700 nM, 2-fold serial dilution of protein, 25°C, triplicate, one-site total binding
# Protocol: The mouse talin1 R1 VBS (H4) peptide (C-[…]) was synthesized by GLBiochem (Shanghai) with a non-native, N-terminal cysteine residue. The peptide was coupled with a maleimide-fluorescein dye (Thermo Fisher Scientific) following the manufacturers protocol. Assays were performed in triplicate with a 2-fold serial dilution of protein, with VBS peptide at 700 nM. Fluorescence polarization was measured using a CLARIOstar plate reader (BMGLabTech) at 25°C (excitation: 482 ± 8 nm; emission: 530 ± 20 nm). Data were analyzed using GraphPad Prism 8 software and Kd values were generated using the one-site total binding equation.
# [2] = Size exclusion chromatography, oligomeric state; format: physicochemical; settings: 100 μL at 100 μM, Superdex S200 Increase 10/300, PBS pH 7.4 with 5 mM DTT, 280 nm
# Protocol: Samples of 100 μL protein at 100 μM protein concentration were injected onto a Superdex G-200 increase 10/300 (GE Healthcare) at 0.75 mL/min in PBS pH 7.4 (supplemented with 5 mM DTT) using an AKTA Pure (GE Healthcare), monitoring absorbance at 280 nm.
# talin1 H12 R3 = experiment: Biosensor analysis (biolayer interferometry, Octet RED384); format: binding; settings: immobilized biotinylated H12 R3, VD1 16 μM to 15.6 nM, 28°C, pH 7.4, association 600 s, dissociation 1200 s, global fit
# Protocol: Solid-phase synthesized talin1 H12 R3 (C-[…]) with free N-terminal cysteine was labelled with maleimide-PEG2-biotin (Thermo Fisher Scientific A39261). Lyophilized peptide was dissolved in PBS pH 7.4 and reduced at 100 μM peptide concentration with 250 μM TCEP in PBS supplemented with 0.25% Triton-X100 for 10 min at RT. Maleimide-PEG2-biotin was added at 5-fold molar excess (500 μM) and incubation continued for 2 hours at RT, mixing at 30 rpm. The reaction was quenched with β-mercaptoethanol added at 5-fold molar excess over maleimide-PEG2-biotin (2.5 mM) for 20 min at RT. Biotin-labelled peptide was purified using a PD10 desalting column (G25 resin, Cytiva Life Sciences) equilibrated with PBS. Elution fractions containing biotinylated peptide were identified using PageBlue-staining (Thermo Fisher Scientific) of glutaraldehyde-fixed (5%, 2 hours) Bolt BisTris Plus 4–12% SDS-PAGE gels (Thermo Fisher Scientific). The concentration of pooled elution fractions was determined using Pierce BCA microplate assay (Thermo Fisher Scientific) measured with Victor Nivo at 562 nm (PerkinElmer). Aliquoted peptide was flash-frozen with liquid nitrogen and stored at -80°C.
# The binding and dissociation kinetics of recombinant WT and Q19S vinculin VD1 to talin1 H12 R3 were determined using ForteBio Octet RED384. […]
# [3] = Circular dichroism thermal denaturation; format: physicochemical; settings: 0.45 mg/mL protein, PBS pH 7.4, 222 nm, 20–90°C
# Protocol: The VD1 domain of mouse vinculin (mVD1) was obtained as a codon-optimized synthetic gene in pET151 (GeneArt). The Q19S point mutation was introduced by site-directed mutagenesis and the sequence was verified.
# Proteins were purified by nickel-affinity chromatography, followed by anion exchange chromatography. Briefly, cells were thawed, supplemented with 1 mM PMSF and 0.2% v/v Triton X-100 and lysed by sonication. Cell debris were removed by centrifugation and the supernatant was filtered and loaded onto a 5 mL HisTrap HP column (Cytiva) using an AKTA Start (GE Healthcare). The column was washed with buffer containing 50 mM Tris-HCl pH 8, 600 mM NaCl, 30 mM imidazole, 4 mM MgCl2, 4 mM ATP, 5% v/v glycerol, 0.2% v/v Triton X-100 and bound protein was eluted across a 75 mL linear gradient of 0–300 mM Imidazole. Fractions containing mVD1 were pooled, supplemented with AcTEV protease (Invitrogen) to remove the His-Tag and dialyzed against 20 mM Tris-HCl pH 8, 50 mM NaCl. Protein was loaded onto a 5 mL HiTrap Q (Cytiva), eluted across a 75 mL linear gradient of 50–750 mM NaCl, dialyzed against phosphate buffered saline (PBS) pH 7.4, snap-frozen in liquid nitrogen and stored at -80°C.
# Circular dichroism was performed using a JASCO J-715 spectropolarimeter with 0.45 mg/mL protein samples in PBS pH 7.4. […]
molecule,measurement,setting,value
"wild-type VD1: VD1 domain of mouse vinculin; in simulations vinculin head domain 1, residues 1–252 (protein, UniProt Q64727 1-252, looked up, fragment, VD1 domain) MPVFHTRTIESILEPVAQQISHLVIMHEEGEVDGKAIPDLTAPVAAVQAAVSNLVRVGKETVQTTEDQILKRDMPPAFIKVENACTKLVQAAQMLQSDPYSVPARDYLIDGSRGILSGTSDLLLTFDEAEVRKIIRVCKGILEYLTVAEVVETMEDLVTYTKNLGPGMTKMAKMIDERQQELTHQEHRVMLVNSMNTVKELLPVLISAMKIFVTTKNSKNQGIEEALKNRNFTVEKMSAEINEIIRVLQLTS",Kd,[1],350 nM
same,oligomeric state in solution,[2],monomeric in solution
same,"binding and dissociation kinetics (KD, kon, koff)",talin1 H12 R3,did not reveal significant differences in the binding or dissociation kinetics
same,"melting temperature, Tm",[3],60 °C
